# Test results: patent US20170267750A1, “Method of Treating Ovarian and Renal Cancer Using Antibodies Against T Cell Immunoglobulin Domain and Mucin Domain 1 (TIM-1) Antigen” (Celldex Therapeutics, Inc., priority 2005, published 2017)
# Residue numbers refer to the chain shown, from its start.
# T1: TIM-1 antigen (Homo sapiens, UniProt Q96D42, DEL158-162/L179P)
# T1 construct: V5; His; made in house; host or cells: baculovirus expression system (pMelV5His vector / pBlueBac)
# T1 sequence (Q96D42 with tags, fused parts or gaps DEL158-162/L179P): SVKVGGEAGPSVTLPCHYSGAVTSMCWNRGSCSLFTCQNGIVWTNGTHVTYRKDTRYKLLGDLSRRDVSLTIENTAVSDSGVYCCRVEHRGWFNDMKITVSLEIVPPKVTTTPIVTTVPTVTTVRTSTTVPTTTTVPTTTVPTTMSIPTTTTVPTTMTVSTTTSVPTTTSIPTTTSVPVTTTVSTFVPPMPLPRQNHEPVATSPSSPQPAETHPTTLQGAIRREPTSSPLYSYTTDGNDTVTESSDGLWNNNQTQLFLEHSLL
# B1: mAb 2.76: fully human IgG4 kappa anti-TIM-1 monoclonal antibody; heavy chain SEQ ID NO: 46, light chain SEQ ID NO: 48 (antibody, listed as Homo Sapiens, V domains shown)
# VH: NNNNEQSGGGVVQPGRSLRLSCAASGFTFSSYGMYWVRQAPGKGLEWVAVIWYDGSNKYYADSVKGRFTISRDNSKNTLYLQMNSLRAEDTAVYYCARDFYDSSRYHYGMDVWGQGTTVTVSSA
# VL: NNNNTQCPLSLPVTPGEPASISCRSSQSLLDSDDGNTYLDWYLQKPGQSPQLLIYTVSYRASGVPDRFSGSGSGTDFTLKISRVEAEDVGVYYCMQRIEFPITFGQGTRLEIKR
# B2: mAb 2.70: fully human IgG4 kappa anti-TIM-1 monoclonal antibody; heavy chain SEQ ID NO: 42, light chain SEQ ID NO: 44 (antibody, listed as Homo Sapiens, V domains shown)
# VH: QVQLVESGGGVVQPGRSLRLSCAASGFIFSRYGMHWVRQAPGKGLKWVAVIWYDGSNKLYADSVKGRFTISRDNSKNTLYLQMNSLRAEDTAVYYCARDYYDNSRHHWGFDYWGQGTLVTVSSA
# VL: B1 VL with N1D, N2I, N3V, N4M, C7T, Q27R, V57L, I98V
# B3: mAb 2.56: fully human IgG4 kappa anti-TIM-1 monoclonal antibody; heavy chain SEQ ID NO: 30, light chain SEQ ID NO: 32 (antibody, listed as Homo Sapiens)
# heavy: B2 VH with I28T, R31S, K46E, N57H, L59Y, C96S, N103T, Y112C
# light: B1 VL with N1E, N2I, N3V, N4M, C7T, D33E, V57L, Y59H, Y93C, I98V
# B4: mAb 2.61: fully human IgG4 kappa anti-TIM-1 monoclonal antibody; heavy chain SEQ ID NO: 38, light chain SEQ ID NO: 40 (antibody, listed as Homo Sapiens, V domains shown)
# VH: B2 VH with S7A, I28T, S30R, R31S, L59Y, A61T, A97V
# VL: DIQMTQSPSSRCASVGDRVTITCRASQGIRNDLAWYQQKPGKAPKRLIYAASSLQSGVPSRFSGSRSGTEFTLTISSLQPEDFAAYYCLQHNSYPPSFGQGTKLEIKR
# B5: mAb 2.59: fully human IgG4 kappa anti-TIM-1 monoclonal antibody; heavy chain SEQ ID NO: 34, light chain SEQ ID NO: 36 (antibody, listed as Homo Sapiens, V domains shown)
# VH: NNNNNQSGPRLVKPSQTLSLTCTVSGGSISSDGYYWSWIRQHPGKGLEWIGYIYYSGSTFYNPSLKSRVAISVDTSKNQFSLKLSSVTAADTAVYYCARESPHSSNWYSGFDCWGQGTLVTVSSA
# VL: NNNNTQSPDFQSVTPKEKVTITCRASQSIGSRLHWYQQKPDQSPKLLIKYASQSFSGVPSRFSGSGSGTDFTLTINSLEAEDAATYYCHQSSNLPFTFGPGTKVDIKR
# B6: mAb 2.54: fully human IgG4 kappa anti-TIM-1 monoclonal antibody; heavy chain SEQ ID NO: 26, light chain SEQ ID NO: 28 (antibody, listed as Homo Sapiens, V domains shown)
# VH: QVQLEQSGGGVVQPGRSLRLSCAASGFTFTNYGLHWVRQAPGKGLDWVAVIWYDGSHKFYADSVKGRFTISRDNSKNTLFLQMNSLRAEDTAVYYCTRDLDYWGQGTLVTVSSA
# VL: ETQLTQSPGTLSLSPGERVTLSCRASQSVSNNYLAWYQQKPGQAPRLLIYGASSRATGIPDRFSGSGSGTDFTLTISRLEPEDCAECYCQQYGSSLPLTFGGGTKVEIKR
# B7: mAb 1.37: fully human IgG2 kappa anti-TIM-1 monoclonal antibody; heavy chain SEQ ID NO: 6, light chain SEQ ID NO: 8 (antibody, listed as Homo Sapiens, V domains shown)
# VH: EVQLVESGGGLVQPGGSLRLSCAASGFTFTNYWMSWVRQAPGKGLEWVANIQQDGSEKYYVDSVRGRFTISRDNAKNSLYLQMNSLRAEDSAVYYCARWDYWGQGTLVTVSSA
# VL: DIVMTQTPLSSTVILGQPASISCRSSQSLVHSDGNTYLNWLQQRPGQPPRLLIYMISNRFSGVPDRFSGSGAGTDFTLKISRVEAEDVGVYYCMQATESPQTFGQGTKVEIKR
# Target: T1, TIM-1 antigen
# Test: Epitope binning (antigen binding competition, Luminex)
# Conditions: Table 9
# Description: Certain antibodies, described herein were “binned” in accordance with the protocol described in U.S. Patent Application Publication No. 20030157730, published on Aug. 21, 2003, entitled “Antibody Categorization Based on Binding Characteristics.”
# MxhIgG conjugated beads were prepared for coupling to primary antibody. The volume of supernatant needed was calculated using the following formula: (n+10)×50 μL (where n=total number of samples on plate). Where the concentration was known, 0.5 μg/mL was used. Bead stock was gently vortexed, then diluted in supernatant to a concentration of 2500 of each bead per well or 0.5×10^5/mL and incubated on a shaker in the dark at room temperature overnight, or 2 hours if at a known concentration of 0.5 μg/mL. Following aspiration, 50 μL of each bead was added to each well of a filter plate, then washed once by adding 100 μL/well wash buffer and aspirating. Antigen and controls were added to the filter plate 50 μL/well then covered and allowed to incubate in the dark for 1 hour on shaker. Following a wash step, a secondary unknown antibody was added at 50 μL/well using the same dilution (or concentration if known) as used for the primary antibody. The plates were then incubated in the dark for 2 hours at room temperature on shaker followed by a wash step. Next, 50 μL/well biotinylated mxhIgG diluted 1:500 was added and allowed to incubate in the dark for 1 hour on shaker at room temperature. Following a wash step, 50 μL/well Streptavidin-PE was added at 1:1000 and allowed to incubate in the dark for 15 minutes on shaker at room temperature. Following a wash step, each well was resuspended in 80 μL blocking buffer and read using a Luminex system.
row,Bin,Molecule
1,4,B1
2,6,B2
3,5,B3
4,4,B4
5,1,B5
6,7,B6
7,4,B7

# Target: T1, TIM-1 antigen
# Test: BiaCore affinity determination of anti-TIM-1 mAb
# Format: binding
# Conditions: 25° C.; mAb captured on chip; TIM-1 antigen injected at 292 nM
# Description: BiaCore® analysis was used to determine binding affinity of anti-TIM-1 antibody to TIM-1 antigen. The analysis was performed at 25° C. using a BiaCore® 2000 biosensor equipped with a research-grade CMS sensor chip. A high-density goat […] antibody surface over a CMS BiaCore® chip was prepared using routine amine coupling. Antibody supernatants were diluted to ˜5 μg/mL in HBS-P running buffer containing 100 μg/mL BSA and 10 mg/mL carboxymethyldextran. The antibodies were then captured individually on a separate surface using a 2 minute contact time, and a 5 minute wash for stabilization of antibody baseline.
# TIM-1 antigen was injected at 292 nM over each surface for 75 seconds, followed by a 3-minute dissociation. Double-referenced binding data were obtained by subtracting the signal from a control flow cell and subtracting the baseline drift of a buffer inject just prior to the TIM-1 injection. TIM-1 binding data for each mAb were normalized for the amount of mAb captured on each surface. The normalized, drift-corrected responses were also measured.
row,Kd [nM],Molecule
1,1.1,B3
2,3.35,B6
